IntAct's records for PubMed 11675338

Legend:
fog1_mouse Zfpm1 [1] = target: fog1_mouse Zfpm1 (UniProt O35615)
fog1_mouse Zfpm1 [2] = target: fog1_mouse Zfpm1 (UniProt O35615); remark: listed apart in the source
fog1_mouse Zfpm1 [3] = target: fog1_mouse Zfpm1 (UniProt O35615); remark: listed apart in the source

Sequence of Erythroid transcription factor (Homo sapiens), P15976 G208S (P15976 whole entry G208S): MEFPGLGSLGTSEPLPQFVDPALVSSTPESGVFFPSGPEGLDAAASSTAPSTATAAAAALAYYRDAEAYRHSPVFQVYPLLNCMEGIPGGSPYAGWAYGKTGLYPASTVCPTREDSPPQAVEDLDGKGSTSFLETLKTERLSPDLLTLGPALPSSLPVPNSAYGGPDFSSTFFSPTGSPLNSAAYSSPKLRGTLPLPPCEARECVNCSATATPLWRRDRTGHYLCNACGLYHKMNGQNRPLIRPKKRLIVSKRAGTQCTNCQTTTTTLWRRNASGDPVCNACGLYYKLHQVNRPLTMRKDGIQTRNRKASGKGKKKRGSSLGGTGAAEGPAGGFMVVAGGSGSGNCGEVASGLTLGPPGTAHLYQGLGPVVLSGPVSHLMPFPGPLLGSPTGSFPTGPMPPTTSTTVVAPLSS
Sequence of fog1_mouse Zfpm1 (O35615 whole entry): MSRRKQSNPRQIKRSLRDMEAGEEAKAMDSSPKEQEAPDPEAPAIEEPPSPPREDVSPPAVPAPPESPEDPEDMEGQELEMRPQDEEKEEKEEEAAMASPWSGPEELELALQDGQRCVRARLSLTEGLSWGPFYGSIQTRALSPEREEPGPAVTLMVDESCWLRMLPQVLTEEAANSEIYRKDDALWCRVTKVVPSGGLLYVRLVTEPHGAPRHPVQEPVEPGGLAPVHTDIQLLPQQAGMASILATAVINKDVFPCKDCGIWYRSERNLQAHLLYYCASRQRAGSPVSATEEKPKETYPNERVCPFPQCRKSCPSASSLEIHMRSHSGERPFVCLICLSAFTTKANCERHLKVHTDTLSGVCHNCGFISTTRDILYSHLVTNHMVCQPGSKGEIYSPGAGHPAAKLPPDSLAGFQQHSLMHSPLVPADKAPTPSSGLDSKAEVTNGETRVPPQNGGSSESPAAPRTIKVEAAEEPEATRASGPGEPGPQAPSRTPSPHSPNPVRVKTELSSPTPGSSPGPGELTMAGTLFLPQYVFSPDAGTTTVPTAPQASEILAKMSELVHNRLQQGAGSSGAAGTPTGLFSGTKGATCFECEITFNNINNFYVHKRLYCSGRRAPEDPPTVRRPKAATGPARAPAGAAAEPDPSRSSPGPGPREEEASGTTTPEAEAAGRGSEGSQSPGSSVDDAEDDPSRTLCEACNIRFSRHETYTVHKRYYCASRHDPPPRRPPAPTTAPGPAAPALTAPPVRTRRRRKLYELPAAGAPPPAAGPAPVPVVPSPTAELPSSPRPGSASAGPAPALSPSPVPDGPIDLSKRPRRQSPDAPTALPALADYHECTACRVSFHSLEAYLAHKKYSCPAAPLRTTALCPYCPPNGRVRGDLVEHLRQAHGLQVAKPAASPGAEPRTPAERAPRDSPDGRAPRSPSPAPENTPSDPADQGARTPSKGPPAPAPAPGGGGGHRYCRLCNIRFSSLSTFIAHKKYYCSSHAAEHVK

- effect of a mutation on the interaction (fog1_mouse Zfpm1 [1]): with no effect
- effect of a mutation on the interaction (fog1_mouse Zfpm1 [2]): decreasing interaction strength
- effect of a mutation on the interaction (fog1_mouse Zfpm1 [3]): increasing interaction strength
Substance: Erythroid transcription factor (Homo sapiens), P15976 G208S
